Reference: the supplement of paper PMC10567573
± gives the standard deviation.

Test: protein stability index of a GFP-peptide fusion (GPS, HEK-293T) (PSI 1-6); higher = more stable
Conditions: c terminus: a fixed tail appended
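Note: 24-mer peptide tiles fused after GFP, lentivirally expressed, FACS-sorted into six equal bins by GFP/DsRed ratio, decoded by Illumina sequencing, PSI is the read-weighted mean bin number.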

Row | Sequence | protein stability index (treatment: DMSO) | protein stability index (treatment: MLN4924 1 uM, 8 h)
1 | LYFLFADAMQLNDKWQGLCWPMMD [CMTM3] | 3.07 ± 0.31 | 3.05 ± 0.47
2 | MRHLSTGTMTGLAIQYALNIAFSE [MATN2] | 3.08 ± 0.49 | 3.33 ± 0.25
3 | PKMRSKEQILELLVLEQFLTILPT [ZNF449] | 3.07 ± 0.96 | 3.36 ± 0.73
4 | DWVPVESLLRPLNSLAALDLSGIQ [ZER1] | 2.42 ± 0.61 | 2.41 ± 0.49
5 | WRTWMTITQSWQVSVRVQPRGRAH [C22orf15] | 2.38 ± 0.64 | 3.05 ± 0.39
6 | TLRLRENCVLSSSPNPFPEISRGE [ZNF8] | 3.61 ± 0.33 | 3.66 ± 0.33
7 | GGYFKAHIKFPIDYPYSPPTFRFL [UBE2R2] | 2.61 ± 0.96 | 2.71 ± 0.52
8 | NVPNPRIKLIDFGIAHKIEAGNEF [DAPK3] | 3.2 ± 0.087 | 3.1 ± 0.35
9 | IFAQGAPRSSLAESFFVDYEENEG [ADAMTSL2] | 4.05 ± 0.067 | 4.98 ± 0.26
10 | RPPTPLFIPAKTGKDVATQILEGE [RSPH3] | 4.82 ± 0.15 | 5.01 ± 0.11
11 | SNKKMLLLVGGLPPGPDRLPSNLV [KLHL14] | 2.17 ± 0.19 | 2.34 ± 0.22
12 | DRDREEEENRLREELRQEWEAKQE [FAM50A] | 5.45 ± 0.5 | 5.63 ± 0.16
13 | PRAVLKPRRVCVGGKRRRDDISVD [PPP2R2C] | 4.02 ± 0.18 | 4.25 ± 0.39
14 | ASYVVFRIIYMLLITIATFQIAAN [SLC19A2] | 3.09 ± 0.94 | 3.19 ± 0.18
15 | GSQDGHFVLSCSYDGLDCQARQFR [SCNN1D] | 2.52 ± 0.12 | 2.71 ± 0.29
16 | LFFVPCIFLYARPNSTFPIDKSMT [OR4A15] | 3.15 ± 0.51 | 3.43 ± 1.4
17 | VSCPKSEVRAKFKFSLLNAKREET [SPOPL] | 3.67 ± 0.3 | 3.53 ± 0.19
18 | DGAAYIGNFDWVGNDFTQNAGTGL [PLD5] | 3.3 ± 0.49 | 3.44 ± 0.14

Row | Sequence | protein stability index (treatment: DMSO) | protein stability index (treatment: MLN4924 1 uM, 8 h)
19 | VDDVSVSLRLWDTFGDHHKDRRFA [RHOBTB2] | 3.28 ± 0.23 | 3.19 ± 0.28
20 | FVLSLVKKHYRLQFYMFGWTHVTL [CDS2] | 2.99 ± 0.57 | 2.99 ± 0.67
21 | RILWKKIQENQRNLYEEGRTAFLW [TRIM43] | 2.08 ± 0.36 | 2.31 ± 0.28
22 | EGGVLRGSKLEKGHLRGPEIRDWR [ZSWIM9] | 3.8 ± 0.2 | 4.02 ± 0.31
23 | GVLEAPDTQVNPVGSVSVDCGPSR [FBXO34] | 5.03 ± 0.31 | 4.89 ± 0.6
24 | ASCLQELFKAHFRGEVLPEEITEE [INTS3] | 3.71 ± 0.34 | 3.95 ± 0.12
25 | INAAFMLLFKDLIKLFACYNDGVI [SNAP91] | 2.9 ± 0.54 | 3.39 ± 0.65
26 | LTTEKQNFLLFDMTTHPLTNNNIK [GOLPH3] | 2.98 ± 0.18 | 3.09 ± 0.17
27 | WEHRTRVGRLYAVYDQAVSIFYDL [SMAD6] | 2.52 ± 0.66 | 2.59 ± 0.47
28 | LRSRASRCRPRSLIDYKSYMDTKL [FAM189A2] | 2.3 ± 0.28 | 2.19 ± 0.23
29 | YPTDNTKVMIFKSSYSLSDMVSNI [MIA2] | 2.51 ± 0.62 | 2.436 ± 0.003
30 | PEEMATYLRYVRRLDFFEKPDYEY [CSNK1G1] | 2.34 ± 0.26 | 2.26 ± 0.55
31 | HSVNRDLNELERLSNLVGKPSENH [MED27] | 4.75 ± 0.18 | 4.71 ± 0.11
32 | NCMAEKRETVLIETQLKACASFIR [C8orf76] | 2.23 ± 0.32 | 2.25 ± 0.45
33 | RLFEDVRSWMFRRGPLNSDRSDYF [TRIM43] | 2.54 ± 0.42 | 2.63 ± 0.13
34 | RTELVEQAFRAIDRADYYLEEFKE [PCMTD2] | 4.1 ± 0.12 | 4.12 ± 0.19
35 | LREKVEFLRSLRQMKQKVQSLYQE [NFE2L1] | 2.09 ± 0.58 | 2.82 ± 0.52
36 | LVCHVMMGNLVMFRKDSVLNILIQ [INTS3] | 3.25 ± 0.47 | 3.33 ± 0.51
